Target: SadB (cytosolic construct without signal peptide, Cys-22 replaced by serine) (S. typhimurium) (UniProt Q8ZL65)
Test: crystal structure; SadB at 8 mg/ml in 20 mM MOPS/HCl, pH 7, 50 mM NaCl; sitting drop at 20 °C; reservoir 0.2 M lithium sulfate, 0.1 M Tris, pH 8.5, 20% (w/v) PEG 4000; 2.45 Å

SadB (cytosolic construct without signal peptide, Cys-22 replaced by serine) (from UniProt Q8ZL65 22-227) (domain or fragment)
stoichiometry N: 3

— paper PMC3953254
